Source: US20190269786A1 (published 2019)
Read-outs that look alike come from different tables or passages of the source.

How the values were obtained:
[1] = target: T1, folate receptor 1 (FOLR1) (human, UniProt P15328 25-234); experiment: flow cytometry binding on T47D cells
[2] = target: T1, folate receptor 1 (FOLR1); experiment: flow cytometry binding on T47D cells; remark: listed apart in the source

T1 sequence (P15328 25-234): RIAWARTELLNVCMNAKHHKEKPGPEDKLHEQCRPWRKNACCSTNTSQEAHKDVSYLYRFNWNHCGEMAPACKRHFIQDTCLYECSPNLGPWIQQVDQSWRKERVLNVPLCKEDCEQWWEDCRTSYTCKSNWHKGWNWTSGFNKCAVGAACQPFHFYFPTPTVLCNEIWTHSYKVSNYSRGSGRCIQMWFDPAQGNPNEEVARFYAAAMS

EC50 [1]: 0.314 nM
EC50 [2]: 0.144 nM
B1: huMOV19 antibody (antibody, V domains shown)
VH: QVQLVQSGAEVVKPGASVKISCKASGYTFTGYFMNWVKQSPGQSLEWIGRIHPYDGDTFYNQKFQGKATLTVDKSSNTAHMELLSLTSEDFAVYYCTRYDGSRAMDYWGQGTTVTVSS
VL: DIVLTQSPLSLAVSLGQPAIISCKASQSVSFAGTSLMHWYHQKPGQQPRLLIYRASNLEAGVPDRFSGSGSKTDFTLTISPVEAEDAATYYCQQSREYPYTFGGGTKLEIKR
